Positions count from the first letter of the chain named.
T1: Human coronavirus OC43 spike glycoprotein S1+S2 extracellular domain (Human coronavirus OC43, AVR40344.1 (by …))
T1 construct: source: bought: Sino Biologicals
T1 chain: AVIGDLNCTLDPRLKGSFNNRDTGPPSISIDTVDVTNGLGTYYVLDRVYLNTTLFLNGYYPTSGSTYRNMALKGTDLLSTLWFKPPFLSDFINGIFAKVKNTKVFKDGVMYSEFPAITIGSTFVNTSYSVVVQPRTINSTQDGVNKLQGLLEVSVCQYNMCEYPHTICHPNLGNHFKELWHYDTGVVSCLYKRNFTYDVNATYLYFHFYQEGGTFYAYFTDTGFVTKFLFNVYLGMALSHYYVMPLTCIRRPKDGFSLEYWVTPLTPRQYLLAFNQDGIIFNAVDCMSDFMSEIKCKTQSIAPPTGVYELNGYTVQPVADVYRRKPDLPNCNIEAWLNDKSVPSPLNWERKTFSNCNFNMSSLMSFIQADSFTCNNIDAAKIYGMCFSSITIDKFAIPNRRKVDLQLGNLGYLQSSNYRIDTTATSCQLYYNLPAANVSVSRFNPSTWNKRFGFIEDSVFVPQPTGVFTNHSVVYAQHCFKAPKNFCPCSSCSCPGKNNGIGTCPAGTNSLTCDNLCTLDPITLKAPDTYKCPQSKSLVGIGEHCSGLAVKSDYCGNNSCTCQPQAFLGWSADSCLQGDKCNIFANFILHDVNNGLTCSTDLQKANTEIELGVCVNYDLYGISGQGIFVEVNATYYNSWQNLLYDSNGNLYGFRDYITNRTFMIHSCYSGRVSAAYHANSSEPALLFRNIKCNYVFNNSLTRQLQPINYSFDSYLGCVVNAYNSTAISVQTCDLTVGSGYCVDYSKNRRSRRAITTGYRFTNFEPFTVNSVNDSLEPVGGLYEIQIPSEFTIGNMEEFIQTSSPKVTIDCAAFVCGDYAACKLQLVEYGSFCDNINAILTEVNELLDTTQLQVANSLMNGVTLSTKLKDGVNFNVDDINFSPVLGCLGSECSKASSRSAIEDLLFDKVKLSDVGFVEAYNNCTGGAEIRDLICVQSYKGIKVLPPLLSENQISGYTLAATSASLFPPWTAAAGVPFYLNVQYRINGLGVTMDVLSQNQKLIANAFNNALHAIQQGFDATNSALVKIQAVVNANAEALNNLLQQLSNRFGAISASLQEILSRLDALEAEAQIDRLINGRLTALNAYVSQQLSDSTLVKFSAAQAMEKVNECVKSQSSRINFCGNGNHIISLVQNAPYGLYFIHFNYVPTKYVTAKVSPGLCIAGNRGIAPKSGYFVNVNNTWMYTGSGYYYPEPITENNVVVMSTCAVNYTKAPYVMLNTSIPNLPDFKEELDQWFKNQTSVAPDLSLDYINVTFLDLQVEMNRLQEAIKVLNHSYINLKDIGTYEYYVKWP

B1: EZ 4C-1 (antibody, V domains shown)
VH: EVQLVESGPGLVKPSETLSLTCTVSGGSVSSGNNYWSWIRQPPGKALEWIGYIYYSGSTKYNPSLKSRVTMSVGTSKNQFSLKVNSVTAADTAMYYCARAPSAPFGGLFDWILPKGINNWGQGTLVTVSS
VL: EIVLTQSPSTLSASVGDRVTITCRTSQSIRSWLAWYQQKPGKAPKLLIFEASTLESGVPERFSGSGSGAEFTLTISSLQPDDFATYYCQQYNGYSYSFGQGTKVEIR
notes: source: HEK293T, transfected; culture supernatant or purified
B2: EW 9C (antibody, V domains shown)
VH: EVQLVESGGGVVQPGASLRLSCVASGFTFNNFGFHWVRQAPGKGLEWLAVISYEGSKTYYAESLKGRFTISRDTSKNTVYLQMNSLRAEDTAVYYCARATSIFWFGEGRNWFDPWGQGTMVTVSS
VL: EIVLTQSPGTVSLSAGERATLSCRASQNVGTDLAWYVQRPGQAPRLLIYDTSNKATGIPARFSGRGSGTDFTLTIDSLEPEDFAVYYCQQRSNWPLTFGGGTKVEIR
notes: as for B1
B3: EY 2A (antibody, V domains shown)
VH: QVQLVESGAEVTKPGDSLIISCKGSGYAFTQYWIGWVRQKPGKGLEWMAMVYPDSSAVFAGGASGVRYRPPFQGQVTISADTSVNTAYLQWDSLKASDTAMYYCVRQERGSNTWYAGNSWGQGTLVTVSS
VL: DIVMTQSPLSLPVSPGEPASISCRSSQSLLHTDAYNYLDWYLQKPGQSPQLLIYLGSTRASGVPDRFSGSGSGTDFTLKISSVKAEDVGVYYCMQALQTPGTFGQGTKLEIK
notes: as for B1
B4: EY 3B (antibody, V domains shown)
VH: B3 VH with Q1E, D16E, S129F
VL: B3 VL with D1E, M4L, L109V, K112R
notes: as for B1
B5: FB 1E (antibody, V domains shown)
VH: EVQLVESGAEVKKPGESLKISCQGSGYRFNSYWIAWVRQMPGKGLEWMGSIFPTDSDIRYNPSFQGQVTISADKSISIAYLQWSSLKASDTAIYYCARHWASMVRGVIRASHYYGMDVWGQGTTVTVSS
VL: QSVLTQPPSASGSPGQSVTISCSGASSDIGDYNYVSWYQQLPGKAPKLLIYEVTKRPSGVPDRFSGSKSGNTASLTVSGLQADDEADYYCSSYAFGGSDIRVFGGGTKLAVL
notes: as for B1
B6: FB 9D (antibody, V domains shown)
VH: B5 VH with E1Q, I58V, I78F
VL: B5 VL with S2P, D31K, I100T, A110T
notes: as for B1
B7: FJ 4E (antibody, V domains shown)
VH: QVQLVESGPGLVKPSETLSLTCSVSGGSISSGTYYWSWIRQQPGKGLEWIGYIYNTGRPYYNPFLKSRITISVDSSKNQFSLKLTSVTAADTAVYYCARDEYDSSDSGIQGHWFDPWGQGTLVTVSS
VL: AIRMTQSPSSLSASVGDRVTITCRTSQNINSFLNWYQQKPGKGPNLLIYGAFTLQSGVPSRFSGSGSGTDFTLTISSLQPEDFATYFCQQSYSTPWTFGQGTKVEIK
notes: as for B1
B8: EZ 4A (antibody, V domains shown)
VH: EVQLVQSGAEVKKPGESLKISCKGSGYSFTSYWIGWVRQMPGKGLEWMGIIYPGDSDTRYSPSFQGQVTISADKSISTAYLQWSSLKASDTAMYYCARSPIAADLFDYWGQGTLVTVSS
VL: not shown
notes: as for B1
B9: FD 11E (antibody, V domains shown)
VH: EVQLVESGGGLVKPGGSLRLSCAASGFTFSSYSMNWVRQAPGKGLEWVSSISSSSSYIYYADSVKGRFTISRDNAKNSLYLQMNSLRAEDTAVYYCASLAAAGPETYYYYGMDVWGQGTMVTVSS
VL: not shown
notes: as for B1
B10: FD 1E (antibody, V domains shown)
VH: B9 VH with V5L
VL: not shown
notes: as for B1
B11: FD 10A (antibody, V domains shown)
VH: EVQLVESGGGLVQPGGSLRLSCAASGFTFSSYWMHWVRQAPGKGLVWVSRINSDGSSTSYADSVKGRFTISRDNAKNTLYLQMNSLRAEDTAVYYCANMAFDIWGQGTMVTVSS
VL: not shown
notes: as for B1
B12: FJ 1C (antibody, V domains shown)
VH: QVQLQESGPGLVKPSETLSLTCTVSGYSISSGYYWGWIRQPPGKGLEWIGSIYHSGSTYYNPSLKSRVTISVDTSKNQFSLKLSSVTAADTAVYYCARDKALLWFGELFTNLFDYWGQGTLVTVSS
VL: QSALTQPASVSGSPGQSITISCTGTSSDVGGYNYVSWYQQHPGKAPKLMIYEVSNRPSGVSNRFSGSKSGNTASLTISGLQAEDEANYYCSSYTSSSTLVFGGGTKLTVL
notes: as for B1
B13: FD 6D (antibody, V domains shown)
VH: EVQLVESGPGLVKVSETLFLTCTVSGYSIGSGNYWGWIRQPPGKVLEWIGSTYHSGTTYYNPSLKSRVTISVDSSKNQFSLKLTSVTAADTAVYYCARDRLLAVHYDSRGYLVDYWGQGTMVTVSS
VL: AIRMTQSPDSLAVSLGERATINCKSSQSIFYSSNNKNYLAWYQHKPGQPPKLLIYWASTRESGVPDRFSGSGSGTDFTLTISSLQAEDVAIYYCQQYYDIPRTFGQGTKVEIR
notes: as for B1
B14: EZ 11A (antibody, V domains shown)
VH: EVQLVESGGGLVQPGGSLRLSCAASGFTFSSYWMSWVRQAPGKGLEWVANIKQDGSEKYYVDSVKGRFTISRDNAKNSLYLQMNSLRAEDTAVYYCARDDYSGSYYWEFDYWGQGTLVTVSS
VL: QPVLTQSPSASASLGASVKLTCTLSSGHSSYAIAWHQQQPEKGPRYLMKLNSDGSHSKGDGIPDRFSGSSSGAERYLTISSLQSEDEADYYCQTWGTGIWVFGGGTKLTVL
notes: as for B1
B15: FN 2C (antibody, V domains shown)
VH: EVQLLESGGGVVQPGRSLRLSCAASGFNFNNYGMHWVRQAPGKGLEWVATISYEGSKKFYVDSVKGRFTISKDNSKNTLYLQMNSLRVDDTAFYYCAKRREIFWLGEPPLSDAFDFWGQGTMVTVSS
VL: QSVLTQPPSVSGAPGQRVTISCTGSGSNIGAGYDVHWYQFLPGTAPQLLIYGNNNRPSGVPDRFSGSKSGTSASLAITGLQAEDEADYYCQSYDSSLSGSVFGGGTKLTVL
notes: as for B1

What was measured:
[1] = molecular target: SARS-CoV-2 nucleocapsid, recombinant (SARS-CoV-2, reference sequence, UniProt P0DTC9); test: ELISA
[2] = molecular target: T2, SARS-CoV-2 spike S2 subunit, recombinant (SARS-CoV-2, reference sequence, UniProt P0DTC2); test: ELISA
T2 construct: source: bought: Sino Biologicals, baculovirus-insect cells

[3] = molecular target: T1, Human coronavirus OC43 spike …; test: ELISA
[4] = molecular target: SARS-CoV-2 spike glycoprotein of wild-type virus, in infected Vero E6 cells (SARS-CoV-2 …, UniProt P0DTC2); test: cell-based or functional assay
[5] = molecular target: T3, SARS nucleocapsid, recombinant (SARS-CoV, reference sequence (strain …, UniProt P59595)); test: ELISA
T3 construct: source: bought: Sino Biologicals, baculovirus-insect cells

[6] = molecular target: T4, MERS spike glycoprotein S1+S2 extracellular domain (MERS coronavirus, isolate EMC/2012 (by …, UniProt K0BRG7)); test: ELISA
T4 construct: source: bought: Sino Biologicals, baculovirus-insect cells

[7] = molecular target: T5, SARS-CoV-2 RBD (amino acids 340-538) on MDCK-SIAT1 cells (SARS-CoV-2 (so in the source)); test: flow cytometry on cells; settings: one partner purified
T5 construct: also called MDCK-RBD; source: MDCK-SIAT1, stably transduced (lentiviral vector), on the cell surface

[8] = molecular target: T6, SARS-CoV-2 NTD on MDCK-SIAT1 cells (SARS-CoV-2 (so in the source)); test: flow cytometry on cells; settings: one partner purified
T6 construct: also called MDCK-NTD

| Binder | OD450 [1] [OD450] | OD450 [2] [OD450] | OD450 [3] [OD450] | PRNT EC50, wild-type SARS-CoV-2 (hCoV-19/England/02/2020) on Vero E6 cells [4] [nM] | binding result [7] | binding result [8] | further results |
| --- | --- | --- | --- | --- | --- | --- | --- |
| B1 | 0.6 |  |  |  |  |  |  |
| B2 |  | 1.17 | 1.82 | 133 |  |  |  |
| B3 | 1.28 |  |  |  |  |  | OD450 [5]: 1.13 OD450 |
| B4 | 1.22 |  |  |  |  |  | OD450 [5]: 1 OD450 |
| B5 |  | 1.2 | 2.34 | 36 |  |  | OD450 [6]: 1.01 OD450 |
| B6 |  | 1.27 | 2.13 |  | no binding | no binding | OD450 [6]: 1.5 OD450 |
| B7 |  | 0.91 | 1.68 |  | no binding | no binding | OD450 [6]: 1.08 OD450 |
| B8 | 1.03 |  |  |  |  |  |  |
| B9 |  |  |  | 70 | no binding | no binding |  |
| B10 |  |  |  | 110 |  |  |  |
| B11 |  | 1.32 |  | 111 | no binding | no binding |  |
| B12 |  |  |  | 55.5 | no binding | binds |  |
| B13 | 1.73 |  |  |  |  |  | OD450 [5]: 1.19 OD450 |
| B14 | 1.29 |  |  |  |  |  | OD450 [5]: 1.31 OD450 |
| B15 |  | 1.15 | 2.2 |  |  |  |  |
